Experimental data published in article PMC5889325 (Molecular cell, 2018).

Tests used:
[1] = molecular target: amino-terminal poly-histidine-tagged Cas4 (Bacillus halodurans type I-C), co-expressed with untagged Cas1 (Bacillus halodurans); experiment: negative-stain EM reconstruction
[2] = molecular target: the molecule itself; experiment: negative-stain EM reconstruction

B1: untagged Cas1 (Bacillus halodurans type I-C), co-expressed with His6-Cas4 (natural protein, UniProt Q9KFX9 1-343, looked up)
chain: MKKLLNTLYVTQPDTYLSLDGDNVVLLKEQEKLGRLPLHNLEAIVGFGYTGASPALMGYCAERNISITFLTKNGRFLARVVGESRGNVVLRKTQYRISENDQESTKIARNFITGKVYNSKWMLERMTREHPLRVNVEQFKATSQLLSVMMQEIRNCDSLESLRGWEGQAAINYNKVFDQMILQQKEEFAFHGRSRRPPKDNVNAMLSFAYTLLANDVAAALETVGLDAYVGFMHQDRPGRASLALDLMEELRGLYADRFVLSLINRKEMTADGFYKKENGAVLMTDEARKTFLKAWQTKKQEKITHPYLGEKMSWGLVPYVQALLLARFLRGDLDEYPPFLWK
stoichiometry N (Cas1 per complex) [1]: 4 | stoichiometry N (Cas4 per complex) [1]: 2 | binding result [2]: binds
